Target: LAT-1(37-542)^GPS(T530A)::6xHis (C. elegans)
Assay: AUC; sedimentation equilibrium of the dimer fraction of the LAT-1 ectodomain; 20 uM - 60 uM protein, native conditions in PBS, 20°C / room temperature, 48 hr at 17,000 and 20,000 rpm, ideal monodisperse model

Substance: LAT-1(37-542)^GPS(T530A)::6xHis (domain or fragment)
- stoichiometry N: 2
